Data published in patent publication US10300107B2, “Compositions and methods for CaMKII inhibitors and uses thereof” (THE REGENTS OF THE UNIVERSITY OF COLORADO, priority 2007, dated 2019).

Assays:
[1] = biological target: T1, CaM dissociation from CaMKII (Homo sapiens, UniProt Q9UQM7); experiment: TA-CaM dissociation from CaMKII; type: binding; details: 5 μM; 150 nM CaMKII, 30 nM TA-CaM
T1 construct: made in house; host or cells: baculovirus/Sf9 cells (CaMKII)
Procedure: TA-CaM dissociation was assessed by increased TA-CaM (30 nM) fluorescence after dissociation from CaMKII or its CaM-binding domain (CBD) (150 nM) during a chase with unlabeled CaM (60 μM). Buffer contained 50 mM Hepes pH 7.4, 150 mM KCl, 2 mM MgCl2, 2 mM MgADP, 2 mM CaCl2, and 0.1 mg/ml BSA. Fluorescence was measured in a time scan (1 sec samples) at 365 nm excitation and 415 nm emission wavelength on a spectro-fluorometer (Fluorolog3; Horiba Jobin Yvon) and was corrected for photobleach (FIG. 16).

[2] = test system: CaMKII T-site mutants W237R and 1205K; experiment: Kinase assay with GFP-CaMKIIα T-site mutants; type: biochemical; details: substrate syntide2
Description: In another example, FIG. 3. […] FIG. 3A represents a model of CaMKII kinase domain (Rosenberg et al., 2005) with the substrate binding S-site (indicated), the T286-region binding T-site (indicated), and the regulatory region (shown as ribbon). The arrow indicates the proposed orientation of CN21a binding to the T-site, when the regulatory region is displaced after activation. […] Results are normalized to maximal kinase activity without inhibitor. Error bars show s.e.m. […] Bound CaMKII was eluted and detected by Western blot.
CaMKII activity assays. Standard CaMKII assays were done for 1 min at 30° C. previously described, with 20 nM CaMKII (subunit, not holoenzyme concentration), 50 mM PIPES pH 7.2, 0.1 mg/ml BSA, 10 mM MgCl2, 100 μM [γ-^32P] ATP (˜1 Ci/mmol), 1 mM CaCl2, 1-2 μM CaM, and 30-60 μM AC2 peptide (or syntide2). The reactions were spotted onto Whatman P81 phosphocellulose paper rectangles (˜2×2.5 cm). To remove free radioactivity, the paper rectangles were rinsed and washed for 30 min under agitation in 0.5% phosphoric acid or water. […] Radioactivity of the bound peptides was quantified in a Beckman 6000TA scintillation counter by the Cherenkov method. Any changes of the standard protocol were done as indicated. For assays of the GFP-CaMKIIα mutants, kinase amounts were normalized by GFP fluorescence in the extract, and total protein was adjusted with Cos-7 extracts.

B1: CaM-KIIN: natural CaMKII inhibitor protein expressed in brain (protein, UniProt Q7Z7J9 1-78, looked up)
Calcium/calmodulin-dependent …: MSEVLPYGDEKLSPYGDGGDVGQIFSCRLQDTNNFFGAGQNKRPPKLGQIGRSKRVVIEDDRIDDVLKNMTDKAPPGV
With B1 the “CaM dissociation from CaMKII” value [1] was “slowed down CaM dissociation from CaMKII” and the “activity of CaMKII T-site mutants W237R and 1205K compared to GFP-CaMKIIα wild type” value [2] was “significantly less affected”.
